Reference: patent US20240199761A1 (AstraZeneca / MedImmune, published 2024)

How the values were obtained:
recombinant human PAD2 [1] = target: T1, recombinant human PAD2 (human, UniProt Q9Y2J8 1-665, enzymatically biotinylated on an Avi-tag (when captured on the SPR chip)); experiment: SPR (Biacore 8K), N-terminally tagged against C-terminally tagged recombinant PAD2
T1 construct: also called hPAD2; Human PAD2 (RD220)

[2] = target: T2, human PAD2, recombinant, tags at the N-terminus (human, UniProt Q9Y2J8 1-665, enzymatically biotinylated on an Avi-tag where captured on streptavidin); experiment: SPR; biotinylated PAD2 on C1-streptavidin, antibody flowed over
T2 construct: not shown: N-terminal tags incl; Avi-tag

[3] = target: T3, mouse PAD2, recombinant, tags at the N-terminus (mouse, UniProt Q08642 1-673, enzymatically biotinylated on an Avi-tag where captured on streptavidin); experiment: as above
T3 construct: not shown: N-terminal tags incl; Avi-tag

[4] = target: T4, cynomolgus PAD2, recombinant, tags at the N-terminus (cynomolgus, UniProt G7NUR0 1-665, enzymatically biotinylated on an Avi-tag where captured on streptavidin); experiment: as above
T4 construct: also called Cyno PAD2; not shown: N-terminal tags incl; Avi-tag

[5] = target: T2, human PAD2, recombinant, tags at the …; experiment: as above; remark: listed apart in the source
[6] = target: T3, mouse PAD2, recombinant, tags at the …; experiment: as above; remark: listed apart in the source
[7] = target: T4, cynomolgus PAD2, recombinant, tags at …; experiment: as above; remark: listed apart in the source
recombinant mouse PAD2 = target: T5, recombinant mouse PAD2 (mouse, UniProt Q08642 1-673); experiment: ratio of SPR KDs, mouse PAD2 against human PAD2; biotinylated PAD captured on C1-streptavidin, antibody flowed over
T5 construct: Recombinant and tagged

Human PAD3 = target: T6, Human PAD3 (Homo sapiens, UniProt Q9ULW8); experiment: specificity ELISA: biotinylated PAD on a streptavidin plate, detection with anti-human IgG Fc HRP, Binding (RFU); antibody concentration not given
T6 construct: biotinylated, captured on a streptavidin plate; also called biotinylated PAD3
T6 sequence (single chain, looked up): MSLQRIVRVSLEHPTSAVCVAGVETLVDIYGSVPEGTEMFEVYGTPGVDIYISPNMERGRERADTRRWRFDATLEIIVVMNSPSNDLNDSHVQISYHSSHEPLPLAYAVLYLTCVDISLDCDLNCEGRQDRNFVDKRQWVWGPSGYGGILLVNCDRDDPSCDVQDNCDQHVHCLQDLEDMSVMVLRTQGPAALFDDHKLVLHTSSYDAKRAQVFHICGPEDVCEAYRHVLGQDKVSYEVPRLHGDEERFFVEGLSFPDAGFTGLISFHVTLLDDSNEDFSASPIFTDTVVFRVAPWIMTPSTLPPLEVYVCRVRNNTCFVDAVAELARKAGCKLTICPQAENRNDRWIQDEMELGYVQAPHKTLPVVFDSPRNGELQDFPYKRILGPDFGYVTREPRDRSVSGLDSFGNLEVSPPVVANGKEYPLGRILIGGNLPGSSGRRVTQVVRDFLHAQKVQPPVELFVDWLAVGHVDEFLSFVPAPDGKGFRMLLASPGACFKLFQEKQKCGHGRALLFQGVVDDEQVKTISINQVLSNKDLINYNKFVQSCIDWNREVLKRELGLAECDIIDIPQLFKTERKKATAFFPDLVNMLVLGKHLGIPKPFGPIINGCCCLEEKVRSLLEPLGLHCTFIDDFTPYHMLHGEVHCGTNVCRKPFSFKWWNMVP

Human PAD1 = target: T7, Human PAD1 (Homo sapiens, UniProt Q9ULC6); experiment: as above
T7 construct: biotinylated, captured on a streptavidin plate; also called biotinylated PAD1
T7 sequence (single chain, looked up): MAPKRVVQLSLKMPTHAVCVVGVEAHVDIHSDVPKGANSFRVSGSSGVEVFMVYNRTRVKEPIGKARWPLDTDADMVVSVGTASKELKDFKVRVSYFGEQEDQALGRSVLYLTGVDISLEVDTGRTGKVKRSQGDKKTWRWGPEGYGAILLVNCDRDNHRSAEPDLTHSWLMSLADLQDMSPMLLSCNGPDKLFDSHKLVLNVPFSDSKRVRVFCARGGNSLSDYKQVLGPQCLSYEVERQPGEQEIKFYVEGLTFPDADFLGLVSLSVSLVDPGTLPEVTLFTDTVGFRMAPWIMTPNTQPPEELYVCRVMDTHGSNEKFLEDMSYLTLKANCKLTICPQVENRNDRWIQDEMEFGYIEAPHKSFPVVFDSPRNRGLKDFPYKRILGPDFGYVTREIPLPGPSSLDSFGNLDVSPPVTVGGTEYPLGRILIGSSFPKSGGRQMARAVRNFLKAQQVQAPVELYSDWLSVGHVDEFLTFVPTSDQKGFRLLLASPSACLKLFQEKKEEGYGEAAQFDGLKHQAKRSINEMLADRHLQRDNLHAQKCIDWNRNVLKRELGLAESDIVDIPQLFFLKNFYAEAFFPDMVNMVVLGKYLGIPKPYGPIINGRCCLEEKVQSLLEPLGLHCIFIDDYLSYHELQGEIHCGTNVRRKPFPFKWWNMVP

[8] = target: T2, human PAD2, recombinant, tags at the …; experiment: SPR; biotinylated antibody on C1-streptavidin, PAD2 flowed over
[9] = target: T3, mouse PAD2, recombinant, tags at the …; experiment: as above
[10] = target: T4, cynomolgus PAD2, recombinant, tags at …; experiment: as above
[11] = target: T2, human PAD2, recombinant, tags at the …; experiment: as above; remark: listed apart in the source
[12] = target: T3, mouse PAD2, recombinant, tags at the …; experiment: as above; remark: listed apart in the source
[13] = target: T4, cynomolgus PAD2, recombinant, tags at …; experiment: as above; remark: listed apart in the source
[14] = target: T8, PAD4 (species not stated) (Homo sapiens (Human), UniProt Q9UM07 1-663, Biotinylated in the specificity ELISA. The SPR material was enzymatically biotinylated on an Avi-tag.); experiment: specificity ELISA: biotinylated PAD on a streptavidin plate, detection with anti-human IgG Fc HRP, fluorescence (RFU); antibody concentration not given
T8 construct: Biotinylated in the specificity ELISA; monomer and dimer forms seen in iSCAT; also called biotinylated PAD4; not shown: Avi-tag and any purification tag on the recombinant PAD4

[15] = target: T9, PAD2 (species not stated) (Homo sapiens (Human), UniProt Q9Y2J8 1-665, Biotinylated in the specificity ELISA. The SPR material was enzymatically biotinylated on an Avi-tag.); experiment: as above
T9 construct: Biotinylated in the specificity ELISA; also called biotinylated PAD2; not shown: Avi-tag and any purification tag on the recombinant PAD2

recombinant human PAD2 [16] = target: T1, recombinant human PAD2; experiment: specificity ELISA: biotinylated PAD on a streptavidin plate, detection with anti-human IgG Fc HRP, Binding (RFU); antibody concentration not given
recombinant human PAD4 = target: T10, recombinant human PAD4 (human, UniProt Q9UM07 1-663, enzymatically biotinylated on an Avi-tag (when captured on the SPR chip)); experiment: as above
T10 construct: also called hPAD4; Human PAD4 (RD223)

B1: Clone 22 (141LO0035 hIgG1 pgl-4), anti-PAD2, as Fab (Fab, V domains shown)
VH: not shown
VL: SYVLTQPPSVSVSPGQTASITCSGDKVGDKYVSWYQQKPGQSPVLVIYQDSQRPSGIPERFSGSNSGNTATLTISGTQAMDEADYYCQTWAPDVLLFGSGTKVTVL
notes: also called Clone 22 (Fab); anti-PAD2 Fab
fold higher affinity than in the previous assay (Table 69) (recombinant human PAD2 [1]): 10 fold

B2: anti-PAD2 Clone 22 (141LO0035 hIgG1 pgl-4), Fab (Fab, V domains shown)
VH: not shown
VL: SYVLTQPPSVSVSPGQTASITCSGDKVGDKYVSWYQQKPGQSPVLVIYQDSQRPSGIPERFSGSNSGNTATLTISGTQAMDEADYYCQTWAPDVLLFGSGTKVTVL
notes: Tested as Fab; also called Clone 22 (Fab)
Kd [2]: 0.0131 nM | koff [2]: 4.77e-05 s⁻¹ | kon [2]: 3.67e+06 M⁻¹ s⁻¹ | Kd [3]: 0.131 nM | koff [3]: 0.000462 s⁻¹ | kon [3]: 3.59e+06 M⁻¹ s⁻¹ | Kd [4]: 0.0292 nM | koff [4]: 7.03e-05 s⁻¹ | kon [4]: 2.39e+06 M⁻¹ s⁻¹ | Kd [5]: 0.0131 nM | Kd [6]: 0.131 nM | Kd [7]: 0.0292 nM

B3: Clone 22 (Fab) (141LO0035 hIgG1 pgl-4) (Fab, V domains shown)
VH: not shown
VL: SYVLTQPPSVSVSPGQTASITCSGDKVGDKYVSWYQQKPGQSPVLVIYQDSQRPSGIPERFSGSNSGNTATLTISGTQAMDEADYYCQTWAPDVLLFGSGTKVTVL
notes: Tested as a Fab; Only the variable domains are tied to Clone 22; also called anti-PAD2 Fab
fold difference in KD, mouse/human (recombinant mouse PAD2): 10 fold

B4: Clone 12 (Bis3, FQQ-YTE; PAD2 Fab, PAD4 scFv) (bispecific antibody, human IgG1, lambda)
heavy: not shown
light: SYVLTQPPSVSVSPGQTASITCSGDKVGDKYVSWYQQKPGQSPVLVIYQDSQRPSGIPERFSGSNSGNTATLTISGTQAMDEADYYCQTWAPDVLLFGSGTKVTVLGQPKAAPSVTLFPPSSEELQANKATLVCLISDFYPGAVTVAWKADSSPVKAGVETTTPSKQSNNKYAASSYLSLTPEQWKSHRSYSCQVTHEGSTVEKTVAPTECS
notes: also called PAD240012
binding result (Human PAD3): no binding | binding result (Human PAD1): no binding

B5: Clone 12, Bis3 anti-PAD2 Fab / anti-PAD4 scFv, Fc FQQ-YTE (bispecific antibody, human IgG1, lambda)
heavy: not shown
light: SYVLTQPPSVSVSPGQTASITCSGDKVGDKYVSWYQQKPGQSPVLVIYQDSQRPSGIPERFSGSNSGNTATLTISGTQAMDEADYYCQTWAPDVLLFGSGTKVTVLGQPKAAPSVTLFPPSSEELQANKATLVCLISDFYPGAVTVAWKADSSPVKAGVETTTPSKQSNNKYAASSYLSLTPEQWKSHRSYSCQVTHEGSTVEKTVAPTECS
notes: Bivalent for PAD2 and for PAD4; In the rows marked ^# the antibody was chemically biotinylated; also called PAD240012
Kd [8]: 0.00676 nM | koff [8]: 4.05e-05 s⁻¹ | kon [8]: 5.6e+06 M⁻¹ s⁻¹ | Kd [9]: 0.0142 nM | koff [9]: 6.89e-05 s⁻¹ | kon [9]: 4.85e+06 M⁻¹ s⁻¹ | Kd [10]: 0.0138 nM | koff [10]: 5.74e-05 s⁻¹ | kon [10]: 4.19e+06 M⁻¹ s⁻¹ | Kd [11]: 0.00676 nM | Kd [12]: 0.0142 nM | Kd [13]: 0.0138 nM

B6: R347 Bis3 FQQYTE (antibody, human IgG1, lambda)
light chain: ELVLTQPASVSGSPGQSITISCTGTSSDVGGYNYVSWYQQHPGKAPKLMIYDVSKRPSGVSNRFSGSKSGNTASLTISGLQAEDEADYYCSSYTSSSTLVFGGGTKLTVLGQPKAAPSVTLFPPSSEELQANKATLVCLISDFYPGAVTVAWKADSSPVKAGVETTTPSKQSNNKYAASSYLSLTPEQWKSHRSYSCQVTHEGSTVEKTVAPTECS
heavy chain with C-terminal scFv: EVQLLESGGGLVQPGGSLRLSCTTSGFTFNTYAMSWVRQAPGKGLEWLSGINNNGRTAFYADSVKGRFTISRDNSKNTLYLQINSLRADDTAVYFCAKDVRFIAVPGDSWGQGTLVTVSSASTKGPSVFPLAPSSKSTSGGTAALGCLVKDYFPEPVTVSWNSGALTSGVHTFPAVLQSSGLYSLSSVVTVPSSSLGTQTYICNVNHKPSNTKVDKRVEPKSCDKTHTCPPCPAPEFQGGPSVFLFPPKPKDTLYITREPEVTCVVVDVSHEDPEVKFNWYVDGVEVHNAKTKPREEQYNSTYRVVSVLTVLHQDWLNGKEYKCQVSNKALPAPIEKTISKAKGQPREPQVYTLPPSREEMTKNQVSLTCLVKGFYPSDIAVEWESNGQPENNYKTTPPVLDSDGSFFLYSKLTVDKSRWQQGNVFSCSVMHEALHNHYTQKSLSLSPGKGGGGSGGGGSEVQLLESGGGLVQPGGSLRLSCTTSGFTFNTYAMSWVRQAPGKGLEWLSGINNNGRTAFYADSVKGRFTISRDNSKNTLYLQINSLRADDTAVYFCAKDVRFIAVPGDSWGQGTLVTVSSGGGGSGGGGSGGGGSGGGGSELVLTQPASVSGSPGQSITISCTGTSSDVGGYNYVSWYQQHPGKAPKLMIYDVSKRPSGVSNRFSGSKSGNTASLTISGLQAEDEADYYCSSYTSSSTLVFGGGTKLTVL
notes: also called Bis3 control (R347)
binding result [14]: no binding | binding result [15]: no binding | binding result (recombinant human PAD2 [16]): no binding | binding result (recombinant human PAD4): no binding
